According to patent US20060182736:

Legend:
Assay in all cases: cell_activity
[1] = test system: TAT-F435-KRAB/KOX (QSHR2-RDHT-RSHR) (artificial); conditions: +/-0.35, VEGF mRNA, 293 cells; protein 2.7 fold; H460 3.8 fold at 12 h (p247)
[2] = test system: TAT-F121-KRAB (QSHT-RSHR-RDHT) (artificial); conditions: 293 cells
[3] = test system: TAT-F475-KRAB (QSHR2-RDHT-RSNR) (artificial)
[4] = test system: TAT-F435-p65 (QSHR2-RDHT-RSHR) (artificial); conditions: +/-0.5, secreted VEGF at 48 h, 293 cells, lysate
[5] = test system: TAT-F475-p65 (QSHR2-RDHT-RSNR) (artificial); conditions: +/-0.48, 293 cells
Chain of TAT-F475-p65 (QSHR2-RDHT-RSNR) (artificial) (chain, as listed by the source): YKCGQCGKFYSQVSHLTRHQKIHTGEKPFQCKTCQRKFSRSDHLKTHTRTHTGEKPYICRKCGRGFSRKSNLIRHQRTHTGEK

Chain of TAT-F121-KRAB (QSHT-RSHR-RDHT) (artificial) (chain, as listed by the source): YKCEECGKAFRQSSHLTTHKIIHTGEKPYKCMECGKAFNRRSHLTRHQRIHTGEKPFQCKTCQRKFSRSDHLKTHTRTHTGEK
Chain of TAT-F435-p65 (QSHR2-RDHT-RSHR) (artificial) (chain, as listed by the source): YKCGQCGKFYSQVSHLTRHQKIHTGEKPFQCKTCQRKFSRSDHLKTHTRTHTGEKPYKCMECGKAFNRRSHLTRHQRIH

Substance	activity (fold repression) [1]	activity (fold repression) ([2]; +/-0.01, VEGF mRNA, lysate)	activity (fold repression) ([3]; +/-0.4, VEGF mRNA, 293 cells)	activity (fold activation) [4]	activity (fold repression) ([2]; +/-0.14, purified protein)	activity (fold activation) [5]	activity (fold repression) ([3]; 80 ug lysate, HEK293, 1.5 fold at 40 ug, vs TAT-only)
endogenous VEGF-A gene	3.1	1.7	3.1	2.5	–	–	–
native human VEGF promoter in pGL3-basic luciferase reporter	–	–	–	–	2.1	2.5	2
